In patent publication US20140314668A1, “TECHNETIUM-99M LABELED COMPLEX OF GOLD NANOPARTICLE-GOLD BINDING PEPTIDES, AND METHOD OF MAKING AND USING THE SAME” (Korea Atomic Energy Research Institute, priority 2013, published 2014):

Experiment: NaCl-induced aggregation method (adsorption of GBP1 on the surface of GNPs, UV-Vis)
Type: physicochemical
Protocol: In order to investigate a minimum concentration of GBP1 required for complete adsorption on the surface of gold nanoparticles (GNPs), since it is known that salts such as NaCl induce aggregation of gold and other nanoparitices (H.M.L. M. Y. Lin et al, Nature, 339, 1989, 360-362), an NaCl-induced aggregation method was used, and concentration of GBP1 adsorbed on the surface of GNPs was analyzed.
A variety of concentrations of GBP1 were added to 0.5 mL of GNP solution (O.D.=1.0, D=10 nm) to form a mixture, followed by standing for 10 minutes at room temperature. Next, 10% NaCl solution was added to the mixture so as to have a final concentration of 0.5% in order to induce aggregation of GNPs, followed by standing for 10 minutes at room temperature. Subsequently, in order to protect additional aggregation, 0.1% BSA was added to the resultant, followed by standing for 10 minutes at room temperature. Finally, aggregation degree of GNPs was measured in a wavelength range of 220 to 700 nm by UV-Vis spectrophotometer, and the measurement results are shown in FIG. 1.

GBP1: synthetic gold binding peptide 1, amino acid sequence (SEQ ID No. 1): MHGKTQATSGTIQS (GBP1)
GBP1 concentration at which aggregation of GNPs is prevented (0.5 mL GNP solution (O.D.=1.0, D=10 nm), 0.5% NaCl final, room temperature): more than 10 μg/ml
main surface plasmon band of the GNP solution (red-shifted) (GBP1 concentration of 10 μg/ml or less, in the presence of NaCl): 525 nm
